Test results taken from the supplement of paper PMC10567573.

B1: CDC14A (parent)
chain: LWVQGDIFRSKLKNRPSSEGSINK

Variants of: B1
Assay: protein stability index of a GFP-peptide fusion (GPS, HEK-293T) (PSI 1-6); higher = more stable
Conditions: c terminus: a fixed tail appended
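Further: lentivirally expressed fusions sorted by FACS into six bins by GFP to DsRed ratio, PSI derived from sequencing read proportions per bin multiplied by bin number.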

Protein stability index, by site and new letter:
I7: Q 2.97 | G 2.83 | T 3.3 | H 3.37 | S 3.21 | E 3.71 | M 2.31 | N 3.82 | V 2.98 | F 2.01 | D 3.35 | A 3.29 | Y 2.66 | P 3.15 | L 2.04 | C 3.09 | K 3.54 | R 2.31 | W 1.71
L12: E 3.51 | F 2.29 | D 2.83 | H 2.71 | T 3.17 | V 2.36 | S 2.89 | N 2.82 | Q 2.92 | K 3.16 | Y 2.61 | M 2.41 | G 2.83 | R 2.22 | P 3.09 | W 2.42 | C 3.03 | I 2.8 | A 3.21
R9: C 2.22 | K 3.02 | M 2.18 | D 3.68 | S 2.6 | A 3.05 | H 2.55 | F 2.57 | P 3.18 | W 1.88 | G 2.56 | I 2.4 | N 3.4 | L 2.35 | V 2.65 | T 2.85 | E 3.21 | Q 2.91 | Y 2.37
Q4: K 2.19 | C 2.46 | Y 1.95 | P 2.74 | F 1.73 | H 2.67 | I 2.11 | V 1.81 | W 1.82 | E 2.19 | S 3.29 | L 2.62 | R 1.87 | N 2.66 | T 2.41 | A 1.9
S17: M 1.83 | A 3.12 | F 1.66 | L 2.63 | E 2.43 | T 2.82 | N 3.48 | W 2.17 | V 2.47 | Q 2.05 | C 2.89 | P 2.41 | G 2.87 | H 2.77 | Y 2.08 | D 2.85 | K 2.45 | I 2.08
D6: R 1.9 | A 2.27 | I 2.69 | S 2.28 | Y 2.45 | N 2.83 | C 1.8 | M 2.61 | Q 1.99 | W 1.37 | G 2.64 | F 1.58 | H 2.24 | V 1.43 | L 1.71 | P 2.34 | T 1.84 | E 2.63 | K 1.74
V3: T 3.12 | K 3.26 | H 1.99 | W 2.55 | A 3.45 | L 2.07 | R 3.34 | D 3.58 | F 2.64 | P 3.94 | N 2.71 | Q 3.32 | S 3.06 | C 2.94 | E 4.85 | M 2.73 | Y 2.89 | G 3.18
W2: Y 2.67 | S 4.49 | V 2.6 | R 3.46 | T 4.6
S10: I 2.31 | L 3.46 | N 2.48 | D 3.07 | Q 3.37 | V 2.92 | K 2.35 | G 3.17 | M 2.49 | T 2.45 | Y 3.11 | R 3.23 | P 2.27 | A 2.29 | C 2.3 | F 2.05 | E 2.44 | W 1.54 | H 2.48
K13: T 2.7 | N 2.31 | E 2.53 | P 3.01 | C 2.2 | R 2.67 | M 1.93 | H 2.55 | Y 1.89 | F 1.68 | Q 2.69 | A 2.38 | I 2.15 | G 2.05 | D 2.87 | S 2.54 | L 2.94 | V 2.41
P16: F 2.49 | S 2.52 | C 1.92 | Y 1.91 | Q 2.5 | N 2.51 | D 2.89 | I 2.36 | T 2.6 | L 1.57 | W 1.74 | G 2.02 | K 2.68 | H 2.52 | A 2.8 | R 2.7 | V 1.64 | E 3.38 | M 2.17
K11: P 3.22 | E 2.63 | D 2.38 | F 2.3 | Y 1.93 | R 2.72 | V 2.36 | L 2.23 | N 3 | H 2.69 | C 2.22 | I 1.66 | Q 2.33 | G 3.68 | A 2.26 | W 2.04 | S 2.99 | M 2.49
E19: G 2.24 | S 2.29 | W 1.88 | M 2.02 | T 1.88 | L 1.97 | V 2.17 | D 2.88 | R 2.35 | P 1.95 | Y 1.58 | F 1.7 | C 2.44 | Q 2.49 | A 2.33 | K 2.21 | N 2.48 | I 2.24 | H 2.36
G5: F 2.59 | S 2.52 | H 2.52 | Y 1.39 | P 2.69 | A 2.06 | C 2.3 | V 1.53 | E 3.34 | D 3.21 | N 2.63 | W 1.87 | R 2.35 | M 1.75 | Q 2.76 | L 2.92 | T 2.29 | I 2.35 | K 2.3
G20: A 2.06 | C 2.82 | D 2.64 | N 2.76 | I 2.61 | F 2.3 | E 3.9 | Q 2.61 | K 3.44 | M 2.73 | P 2.04 | H 2.74 | L 2.69 | R 2.76
S18: F 2.37 | N 2.54 | I 1.84 | T 2.45 | M 1.8 | H 3.27 | E 3.11 | Y 2.01 | A 2.58 | D 3.11 | L 3.55 | G 4.75 | P 1.91 | W 1.46 | K 2.59 | R 2.42 | Q 2.39 | C 3.17 | V 2.25
F8: H 2.97 | R 2.92 | T 3.3 | G 3.01 | E 4.43 | N 3.01 | P 4.1 | C 3.14 | W 2.51 | Q 3.78 | L 2.75 | M 2.42 | A 3.43 | V 3.06 | Y 3.25 | D 3.67 | I 2.62 | K 3.23 | S 3.34
R15: H 2.62 | Q 3.09 | I 2.52 | K 3 | A 2.81 | F 2.39 | Y 3.17 | M 2.07 | W 2.25 | C 2.54 | E 3.02 | L 2.92 | G 2.91 | S 2.66 | T 3.26 | D 2.61 | V 2.78 | N 2.57 | P 2.81
N14: M 2 | Y 2.53 | C 2.13 | W 2.15 | Q 2.36 | G 2.24 | D 2.67 | I 2.43 | P 2.45 | A 2.6 | T 1.88 | S 1.99 | H 2.26 | K 2.55 | E 2.7 | F 2.48 | R 1.91 | L 2.47
